From article PMC6101569

How the values were obtained:
[1] = target: APLF^AD labelled with the fluorescent tag NT-647 (human) (UniProt Q8IW19); assay: MST
[2] = target: APLF acidic domain (APLF^AD), Homo sapiens APLF residues 450-511, wild type (human) (UniProt Q8IW19); assay: cross-linking
Chain of APLF acidic domain (APLF^AD), Homo sapiens APLF residues 450-511, wild type (human) (Q8IW19 450-511): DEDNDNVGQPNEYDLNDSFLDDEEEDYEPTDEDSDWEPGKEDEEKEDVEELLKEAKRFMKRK

Chain of APLF^AD labelled with the fluorescent tag NT-647 (human) (Q8IW19 450-511): as above

Substance	KD,1 (high-affinity binding event, sequential-binding model) [1] [nM]	stoichiometry N [2]	KD of the secondary binding over KD of the high-affinity binding (fold) [1] [fold]
H2A-H2B histone dimer from Drosophila melanogaster (from UniProt P84051 2-121; P02283 2-123) (complex)	800	1	–
(H3-H4)2 histone tetramer from Drosophila melanogaster (from UniProt P02299 2-136; P84040 2-103) (complex)	1400	–	50
